# B1: gastrointestinal HAstV-VA1 capsid spike (HAstV-VA1^gastro spike), residues 408-684 (domain or fragment)
# chain: PIPPTGVPVGDFYVCGRMTTLHMGGQSGIQATTLVNGMIYRTDHPEPSTSPVSNWEFTVLENNTIVGAGMGCVWFQKSEALVWTLDGQKLSGWNTLDGVGTTQLTVAWRQHNRTIYGWANVVAWNSEEWHTNAEQPHQPILRLTYWLVKINVLSEPEDFDVVQKSPLAYLEDYTTAQSKSAIQKLNFQTFQKPEGGGTLRAQYSTTPRQGDFAVIWQIGRHNFDMSTGKGTPVESLSDYVMPQQKDAHIGMWYRALTSVGPRSDVLTLHFHLPTVEK
# notes: Capsid precursor protein (VP86, ORF2) of human astrovirus VA1, gastrointestinal strain, NCBI YP_003090288.1, spike structural domain residues 408-684; C-terminal thrombin site and 10-histidine tag; tag removed with thrombin before SEC and crystallisation; Homodimer; also called VA1 Spike^Gastro; HAstV-VA1 spike; source: E. coli T7 Express, purified (TALON, thrombin digestion, SEC on Superdex 200 …)
# Biological target: the molecule itself
# Assay: SEC; Superdex 200 increase 10/300; retention volume compared with Bio-Rad gel filtration standards; 20 mM Tris-HCl pH 8.0, 150 mM NaCl
protein,measurement,value
B1,stoichiometry N,2

# Source: article PMC10950212, “Structure and antigenicity of the divergent human astrovirus VA1 capsid spike” (PLOS Pathogens, 2024)
